Results from the supplement of paper PMC10567573.
± gives the standard deviation.

Assay: protein stability index of a GFP-peptide fusion (GPS, HEK-293T) (PSI 1-6); higher = more stable
[1] = treatment: DMSO, c terminus: a fixed tail appended
[2] = treatment: MLN4924 1 uM, 8 h, c terminus: a fixed tail appended
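Further: 24-mer peptide tiles fused after GFP, lentivirally expressed, FACS-sorted into six equal bins by GFP/DsRed ratio, decoded by Illumina sequencing, PSI is the read-weighted mean bin number.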

Sequence | protein stability index [1] | protein stability index [2] | protein stability index (treatment: DMSO, c terminus: native) | protein stability index (treatment: MLN4924 1 uM, 8 h, c terminus: native)
GSLCSLWFGASVLSLLELLELLLD [SCNN1D] | 2.17 ± 0.36 | 1.91 ± 0.27 | – | –
NSFSLNSSISSSARRTTRSEPIRR [MAP2] | 4.46 ± 0.27 | 4.53 ± 0.13 | – | –
SHKERFDPSGKGKGKAGRVDLVDE [TPPP] | 5.04 ± 0.46 | 5.24 ± 0.2 | – | –
MRLNSTGEVPVLIHGENIICEATQ [GDAP1] | 3.69 ± 0.17 | 3.8 ± 0.45 | – | –
EMSLAEELNHGRQGENQEHLVIAE [FATE1] | 5.44 ± 0.12 | 5.2 ± 0.24 | – | –
RSSSRINIPERASGPEGNLNQIVT [FAM104B] | 4.28 ± 0.27 | 4.36 ± 0.2 | – | –
SERCQRQLQSLCRGLGLGGRRLKS [FANCE] | 3.22 ± 0.36 | 3.49 ± 0.47 | – | –
APQHPQPGSQALPAPALAPDQLPQ [FBXO28] | 5.13 ± 0.32 | 5.04 ± 0.29 | – | –
QSSADGSQPPKKKPKTTNIELQGV [RBBP5] | 5.09 ± 0.16 | 5.26 ± 0.36 | – | –
VLERGDSAPATAKENAAAPSPVRA [PALM] | 5.3 ± 0.23 | 5.24 ± 0.078 | – | –
IKPENILITKQGIIKICDFGFAQI [CDKL4] | 2.18 ± 0.29 | 2.49 ± 1 | – | –
SDVDQLYLIIRTLGKLIPRHQSIF [CDKL4] | 3 ± 1.2 | 2.67 ± 0.77 | – | –
RKDKDVARLQDFQELELVLMISEN [ANKRD40] | 2.1 ± 0.47 | 2.13 ± 0.56 | – | –
NESALVKEKELSIELANIRDEVAF [MTUS2] | 4.42 ± 0.28 | 4.33 ± 0.46 | – | –
GVTEEQEGFADGFVKALDDLHKMN [JUNB] | 4.69 ± 0.17 | 4.47 ± 0.32 | – | –
LFLMDLSEGELGGPSEPGGTHPED [RHOBTB2] | 4.45 ± 0.22 | 4.33 ± 0.23 | – | –
FGRYLEHLEVKFMNPYNAVLTKKF [FBXO39] | 2.24 ± 0.45 | 2.04 ± 0.16 | – | –
ANLKQVKKEDTEKERDLRDVGDWR [TNNI2] | 5.33 ± 0.076 | 4.96 ± 0.24 | – | –
EMTTTDDLDFKHHNYKEMRQLMKV [CPXM2] | 3.75 ± 0.099 | 3.53 ± 0.18 | – | –
DFHLSIHSDMAAIVKAMASPESGL [DVL3] | 2.87 ± 0.21 | 2.85 ± 0.24 | – | –
NKKGFWSYGPVILVVLVVAVVASS [TOR1AIP2] | 1.78 ± 0.42 | 1.83 ± 0.042 | – | –
PNHLGGGAVVLGAESHASKDVAID [STX5] | 5.1 ± 0.37 | 5.15 ± 0.17 | – | –
EDVLLLNFEEMRALLDSLPPPVES [KLHL14] | 3.34 ± 0.24 | 3.57 ± 0.41 | – | –

Sequence | protein stability index [1] | protein stability index [2] | protein stability index (treatment: DMSO, c terminus: native) | protein stability index (treatment: MLN4924 1 uM, 8 h, c terminus: native)
QPPPAPPKKIMPEAHSHYLYGHML [PPFIA4] | 2.76 ± 0.26 | 2.91 ± 0.22 | – | –
LDRVRGGRQKYKRRPEVDPLPFPG [ESRRA] | 3.68 ± 0.36 | 3.92 ± 0.41 | – | –
MADSGLREPQEDSQKDLENDPSVN [TOR1AIP2] | 5.65 ± 0.19 | 5.57 ± 0.21 | – | –
STFHTISPSFQLKAAALPPFPLGA [PLAGL1] | 2.48 ± 0.46 | 2.64 ± 0.16 | – | –
RGAPRGGGRGGSRSDRGGGRSRY [RBMX] | – | – | 5.34 ± 0.14 | 5.33 ± 0.11
LELQRQREARKRALARKQAQEQLR [RSPH3] | 3.95 ± 0.31 | 4.06 ± 0.49 | – | –
IELNPPEKMALDPYTELRKQPLRK [EFHC1] | 4.08 ± 0.2 | 4.21 ± 0.33 | – | –
FAQPMMRPPFGAAAVPGTQLSPSP [SNAP91] | 3.43 ± 0.31 | 3.71 ± 0.35 | – | –
RKPSVPWQRQMDQPQDRNQALGTH [RASAL3] | 4.08 ± 0.16 | 4.21 ± 0.19 | – | –
ACGIEHCSVHYVSDSGDGVYAGRP [FBXO34] | 2.25 ± 0.29 | 2.84 ± 1.1 | – | –
WQMIEQIQFIKLFGMAKIDNLLQE [HNF4A] | 2.9 ± 0.7 | 2.33 ± 0.33 | – | –
TEQSSASRLMRRHKRRRRKQKVSR [DVL3] | 5.13 ± 0.24 | 5.16 ± 0.22 | – | –
TFFPVALKKHGPICQKTATKKRKT [ZC2HC1A] | 3.24 ± 0.3 | 3.32 ± 0.3 | – | –
EPNRLETGEAGEELDLRLRLAQPS [RTN2] | 5.17 ± 0.13 | 5.28 ± 0.17 | – | –
MIMLKDRRMTVVGRLEGLIQPDDL [FAF2] | 2.34 ± 0.25 | 2.56 ± 0.29 | – | –
SLLGLLSFPRNNISYLVLSMISMG [JAGN1] | 3.11 ± 0.33 | 3.01 ± 0.71 | – | –
KCEHCRVLFLDHVMYTIHMGCHGF [IKZF1] | 2.24 ± 0.38 | 2.49 ± 0.63 | – | –
VKGMQRIVNQWSEKFSDEGDSDSA [DLC1] | 4.68 ± 0.21 | 5.09 ± 0.29 | – | –
KEVVKKHSQFIGYPITLYLEKERE [HSP90AB1] | – | 3.32 ± 0.24 | – | –
LNLTEGFAVLHWKPPQNPVDTYDV [TNXB] | 2.5 ± 0.66 | 2.69 ± 0.45 | – | –
HGLAFWFDVAFIGSIMTVWLSTAP [CARM1] | 2.78 ± 0.33 | 3.1 ± 0.53 | – | –
LQKKVEQLSRELSTLRNLFKQLPE [CEBPB] | 2.3 ± 0.32 | 2.43 ± 0.41 | – | –
